Assay [1] concerns the target MsDps2 protein (second Dps homologue of Mycobacterium smegmatis) (Mycobacterium smegmatis). The assay can be described thus: negative-stain transmission electron microscopy; MsDps2 in 20 mM Tris, 200 mM NaCl on copper grids, stained with uranyl acetate, 80 kV, 50,000x.
For assay [2] the target is unchanged. The assay can be described thus: native gel or EMSA; 10% native gel; BSA and ferritin as markers; oligomeric state of the purified protein. In general terms: In EMSA bound probe runs differently from free probe, usually more slowly.
Assay [3] has as its target MsDps2ΔN15 (MsDps2 lacking 15 amino acids from the N-terminus) (Mycobacterium smegmatis). The assay is described as above.

With “MsDps2 protein (second Dps homologue of Mycobacterium smegmatis) (natural protein)”, the stoichiometry N in assay [1] and in assay [2] was 12 throughout. For the substance “MsDps2ΔN15 (MsDps2 lacking 15 amino acids from the N-terminus) (domain or fragment)”, the stoichiometry N (usually the number of molecules, sites or subunits per partner or assembly) in assay [3] turned out to be 12.

The record behind these values is publication PMC2779847.
